We go through 1 substance from patent US20210395318A1.

Where “and” joins values, the source holds several entries; their conditions need not be identical. Identical values can stand only once.

This test addresses human CD40 on primary human B cells or human monocyte-derived dendritic cells (human) (UniProt P25942). Briefly: cell-based or functional assay.

Sequence of human CD40 on primary human B cells or human monocyte-derived dendritic cells (human) (P25942 21-277 H80K/K81H limits assumed): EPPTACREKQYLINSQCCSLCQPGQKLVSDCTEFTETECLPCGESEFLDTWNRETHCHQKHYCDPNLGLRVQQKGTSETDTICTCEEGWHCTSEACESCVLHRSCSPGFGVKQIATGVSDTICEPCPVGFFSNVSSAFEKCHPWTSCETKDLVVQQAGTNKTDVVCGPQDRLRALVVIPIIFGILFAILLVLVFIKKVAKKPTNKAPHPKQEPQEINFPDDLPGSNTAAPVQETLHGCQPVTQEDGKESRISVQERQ

On to “anti-CD40 monoclonal antibody (corresponds to sequence 21.4.1 of U.S. Pat. No. 7,338,660 B2)”, for which the EC50, % CD86, human B cells with FAP-CHO cells, w HSA was 0.88 nM and 0.3 nM; the EC50, % CD86, human B cells with FAP-CHO cells, w/o HSA was 1.9 nM and 0.51 nM; the EC50, MFI CD86, human B cells with FAP-CHO cells, w HSA was 0.51 nM and 2.05 nM; the EC50, MFI CD86, human B cells with FAP-CHO cells, w/o HSA is 1.13 nM and 4.73 nM. Moreover, the Efficacy [MFI at highest dose], MFI CD86, human B cells with FAP-CHO cells, w HSA is 1530 MFI and 1870 MFI; the Efficacy [MFI at highest dose], MFI CD86, human B cells with FAP-CHO cells, w/o HSA was 1340 MFI and 2060 MFI; the Efficacy [MFI at highest dose], MFI CD86, human B cells with WT-CHO cells (no FAP), w HSA is 1900 MFI and 1470 MFI; the Efficacy [MFI at highest dose], MFI CD86, human B cells with WT-CHO cells (no FAP), w/o HSA was 2050 MFI and 1390 MFI.
